Test results published in publication PMC12698191 (Molecular cell, 2025).

B1: purified human PSA (shorter isoform) (enzyme, UniProt P55786-1 45-919, looked up)
chain: MPEKRPFERLPADVSPINYSLCLKPDLLDFTFEGKLEAAAQVRQATNQIVMNCADIDIITASYAPEGDEEIHATGFNYQNEDEKVTLSFPSTLQTGTGTLKIDFVGELNDKMKGFYRSKYTTPSGEVRYAAVTQFEATDARRAFPCWDEPAIKATFDISLVVPKDRVALSNMNVIDRKPYPDDENLVEVKFARTPVMSTYLVAFVVGEYDFVETRSKDGVCVRVYTPVGKAEQGKFALEVAAKTLPFYKDYFNVPYPLPKIDLIAIADFAAGAMENWGLVTYRETALLIDPKNSCSSSRQWVALVVGHELAHQWFGNLVTMEWWTHLWLNEGFASWIEYLCVDHCFPEYDIWTQFVSADYTRAQELDALDNSHPIEVSVGHPSEVDEIFDAISYSKGASVIRMLHDYIGDKDFKKGMNMYLTKFQQKNAATEDLWESLENASGKPIAAVMNTWTKQMGFPLIYVEAEQVEDDRLLRLSQKKFCAGGSYVGEDCPQWMVPITISTSEDPNQAKLKILMDKPEMNVVLKNVKPDQWVKLNLGTVGFYRTQYSSAMLESLLPGIRDLSLPPVDRLGLQNDLFSLARAGIISTVEVLKVMEAFVNEPNYTVWSDLSCNLGILSTLLSHTDFYEEIQEFVKDVFSPIGERLGWDPKPGEGHLDALLRGLVLGKLGKAGHKATLEEARRRFKDHVEGKQILSADLRSPVYLTVLKHGDGTTLDIMLKLHKQADMQEEKNRIERVLGATLLPDLIQKVLTFALSEEVRPQDTVSVIGGVAGGSKHGRKAAWKFIKDNWEELYNRYQGGFLISRLIKLSVEGFAVDKMAGEVKAFFESHPAPSAERTIQQCCENILLNAAWLKRDAESIHQYLLQRKASPPTV
B2: purified human SWELL1 (homo-hexamer) (natural protein)
chain: MIPVTELRYFADTQPAYRILKPWWDVFTDYISIVMLMIAVFGGTLQVTQDKMICLPCKWVTKDSCNDSFRGWAAPGPEPTYPNSTILPTPDTGPTGIKYDLDRHQYNYVDAVCYENRLHWFAKYFPYLVLLHTLIFLACSNFWFKFPRTSSKLEHFVSILLKCFDSPWTTRALSETVVEESDPKPAFSKMNGSMDKKSSTVSEDVEATVPMLQRTKSRIEQGIVDRSETGVLDKKEGEQAKALFEKVKKFRTHVEEGDIVYRLYMRQTIIKVIKFILIICYTVYYVHNIKFDVDCTVDIESLTGYRTYRCAHPLATLFKILASFYISLVIFYGLICMYTLWWMLRRSLKKYSFESIREESSYSDIPDVKNDFAFMLHLIDQYDPLYSKRFAVFLSEVSENKLRQLNLNNEWTLDKLRQRLTKNAQDKLELHLFMLSGIPDTVFDLVELEVLKLELIPDVTIPPSIAQLTGLKELWLYHTAAKIEAPALAFLRENLRALHIKFTDIKEIPLWIYSLKTLEELHLTGNLSAENNRYIVIDGLRELKRLKVLRLKSNLSKLPQVVTDVGVHLQKLSINNEGTKLIVLNSLKKMANLTELELIRCDLERIPHSIFSLHNLQEIDLKDNNLKTIEEIISFQHLHRLTCLKLWYNHIAYIPIQIGNLTNLERLYLNRNKIEKIPTQLFYCRKLRYLDLSHNNLTFLPADIGLLQNLQNLAITANRIETLPPELFQCRKLRALHLGNNVLQSLPSRVGELTNLTQIELRGNRLECLPVELGECPLLKRSGLVVEEDLFNTLPPEVKERLWRADKEQA

Tests used:
Test in all cases: cryo-EM structure
[1] = target: B2
[2] = target: B1
cryo-EM structure = target: the molecule itself

How did the “stoichiometry N” value [1] turn out when B1 was run?
Its value is 3 PSA molecules per SWELL1 hexamer.

Does B2 bind [2]?
Result: binds

And the “stoichiometry N” value (cryo-EM structure)?
The value was 6.
